Reference: US20120090043A1, “TARGETS FOR RETROVIRUS ASSOCIATED DISEASES” (priority 2009, published 2012)

B1: LOC541468: human host interactor protein, Gene ID 541468, expressed from transfected ORF vector (protein)
chain: MEGTVESQTPDLRDVEGKVGRKTPEGLLRGLRGECELGTSGALLLPGASSTGHDLGDKIMALKMELAYLRAIDVKILQQLVTLNEGIEAVRWLLEERGTLTSHCSSLTSSQYSLTGGSPGRSRRGSWDSLPDTSTTDRLDSVSIGSFLDTVAPSELDEQGPPGAPRSEMDWAKVIAGGERARTEVDVAATRLGSLRAVWKPPGERLQGGPPESPEDESAKLGFEAHWFWEQCQDDVTFL
B2: PDE9A: human host interactor protein, Gene ID 5152, expressed from transfected ORF vector (protein)
chain: MGSGSSSYRPKAIYLDIDGRIQKVIFSKYCNSSDIMDLFCIATGLPRNTTISLLTTDDAMVSIDPTMPANSERTPYKVRPVAIKQLSAGVEDKRTTSRGQSAERPLRDRRVVGLEQPRREGAFESGQVEPRPREPQGCYQEGQRIPPEREELIQSVLAQVAEQFSRAFKINELKAEVANHLAVLEKRVELEGLKVVEIEKCKSDIKKMREELAARSSRTNCPCKYSFLDNHKKLTPRRDVPTYPKYLLSPETIEALRKPTFDVWLWEPNEMLSCLEHMYHDLGLVRDFSINPVTLRRWLFCVHDNYRNNPFHNFRHCFCVAQMMYSMVWLCSLQEKFSQTDILILMTAAICHDLDHPGYNNTYQINARTELAVRYNDISPLENHHCAVAFQILAEPECNIFSNIPPDGFKQIRQGMITLILATDMARHAEIMDSFKEKMENFDYSNEEHMTLLKMILIKCCDISNEVRPMEVAEPWVDCLLEEYFMQSDREKSEGLPVAPFMDRDKVTKATAQIGFIKFVLIPMFETVTKLFPMVEEIMLQPLWESRDRYEELKRIDDAMKELQKKTDSLTSGATEKSRERSRDVKNSEGDCA
B3: DLAT: human host interactor protein, Gene ID 1737, expressed from transfected ORF vector (protein)
chain: MWRVCARRAQNVAPWAGLEARWTALQEVPGTPRVTSRSGPAPARRNSVTTGYGGVRALCGWTPSSGATPRNRLLLQLLGSPGRRYYSLPPHQKVPLPSLSPTMQAGTIARWEKKEGDKINEGDLIAEVETDKATVGFESLEECYMAKILVAEGTRDVPIGAIICITVGKPEDIEAFKNYTLDSSAAPTPQAAPAPTPAATASPPTPSAQAPGSSYPPHMQVLLPALSPTMTMGTVQRWEKKVGEKLSEGDLLAEIETDKATIGFEVQEEGYLAKILVPEGTRDVPLGTPLCIIVEKEADISAFADYRPTEVTDLKPQVPPPTPPPVAAVPPTPQPLAPTPSAPCPATPAGPKGRVFVSPLAKKLAVEKGIDLTQVKGTGPDGRITKKDIDSFVPSKVAPAPAAVVPPTGPGMAPVPTGVFTDIPISNIRRVIAQRLMQSKQTIPHYYLSIDVNMGEVLLVRKELNKILEGRSKISVNDFIIKASALACLKVPEANSSWMDTVIRQNHVVDVSVAVSTPAGLITPIVFNAHIKGVETIANDVVSLATKAREGKLQPHEFQGGTFTISNLGMFGIKNFSAIINPPQACILAIGASEDKLVPADNEKGFDVASMMSVTLSCDHRVVDGAVGAQWLAEFRKYLEKPITMLL
B4: MINA: human host interactor protein, Gene ID 84864, expressed from transfected ORF vector (protein)
chain: MPKKAKPTGSGKEEGPAPCKQMKLEAAGGPSALNFDSPSSLFESLISPIKTETFFKEFWEQKPLLIQRDDPALATYYGSLFKLTDLKSLCSRGMYYGRDVNVCRCVNGKKKVLNKDGKAHFLQLRKDFDQKRATIQFHQPQRFKDELWRIQEKLECYFGSLVGSNVYITPAGSQGLPPHYDDVEVFILQLEGEKHWRLYHPTVPLAREYSVEAEERIGRPVHEFMLKPGDLLYFPRGTIHQADTPAGLAHSTHVTISTYQNNSWGDFLLDTISGLVFDTAKEDVELRTGIPRQLLLQVESTTVATRRLSGFLRTLADRLEGTKELLSSDMKKDFIMHRLPPYSAGDGAELSTPGGKLPRLDSVVRLQFKDHIVLTVLPDQDQSDEAQEKMVYIYHSLKNSRETHMMGNEEETEFHGLRFPLSHLDALKQIWNSPAISVKDLKLTTDEEKESLVLSLWTECLIQVV
B5: MLLT11: human host interactor protein, Gene ID 10962, expressed from transfected ORF vector (protein)
chain: MRDPVSSQYSSFLFWRMPIPELDLSELEGLGLSDTATYKVKDSSVGKMIGQATAADQEKNPEGDGLLEYSTFNFWRAPIASIHSFELDLL
B6: MIZF: human host interactor protein, Gene ID 25988, expressed from transfected ORF vector (protein)
chain: MPPPGKVPRKENLWLQCEWGSCSFVCSTMEKFFEHVTQHLQQHLHGSGEEEEEEEEDDPLEEEFSCLWQECGFCSLDSSADLIRHVYFHCYHTKLKQWGLQALQSQADLGPCILDFQSRNVIPDIPDHFLCLWEHCENSFDNPEWFYRHVEAHSLCCEYEAVGKDNPVVLCGWKGCTCTFKDRSKLREHLRSHTQEKVVACPTCGGMFANNTKFLDHIRRQTSLDQQHFQCSHCSKRFATERLLRDHMRNHVNHYKCPLCDMTCPLPSSLRNHMRFRHSEDRPFKCDCCDYSCKNLIDLQKHLDTHSEEPAYRCDFENCTFSARSLCSIKSHYRKVHEGDSEPRYKCHVCDKCFTRGNNLTVHLRKKHQFKWPSGHPRFRYKEHEDGYMRLQLVRYESVELTQQLLRQPQEGSGLGTSLNESSLQGIILETVPGEPGRKEEEEEGKGSEGTALSASQDNPSSVIHVVNQTNAQGQQEIVYYVLSEAPGEPPPAPEPPSGGIMEKLQGIAEEPEIQMV
B7: KRT15: human host interactor protein, Gene ID 3866, expressed from transfected ORF vector (protein)
chain: MTTTFLQTSSSTFGGGSTRGGSLLAGGGGFGGGSLSGGGGSRSISASSARFVSSGSGGGYGGGMRVCGFGGGAGSVFGGGFGGGVGGGFGGGFGGGDGGLLSGNEKITMQNLNDRLASYLDKVRALEEANADLEVKIHDWYQKQTPTSPECDYSQYFKTIEELRDKIMATTIDNSRVILEIDNARLAADDFRLKYENELALRQGVEADINGLRRVLDELTLARTDLEMQIEGLNEELAYLKKNHEEEMKEFSSQLAGQVNVEMDAAPGVDLTRVLAEMREQYEAMAEKNRRDVEAWFFSKTEELNKEVASNTEMIQTSKTEITDLRRTMQELEIELQSQLSMKAGLENSLAETECRYATQLQQIQGLIGGLEAQLSELRCEMEAQNQEYKMLLDIKTRLEQEIATYRSLLEGQDAKMAGIAIREASSGGGGSSSNFHINVEESVDGQVVSSHKREI
B8: HOXD3: human host interactor protein, Gene ID 3232, expressed from transfected ORF vector (protein)
chain: MLFEQGQQALELPECTMQKAAYYENPGLFGGYGYSKTTDTYGYSTPHQPYPPPAAASSLDTDYPGSACSIQSSAPLRAPAHKGAELNGSCMRPGTGNSQGGGGGSQPPGLNSEQQPPQPPPPPPTLPPSSPTNPGGGVPAKKPKGGPNASSSSATISKQIFPWMKESRQNSKQKNSCATAGESCEDKSPPGPASKRVRTAYTSAQLVELEKEFHFNRYLCRPRRVEMANLLNLTERQIKIWFQNRRMKYKKDQKAKGILHSPASQSPERSPPLGGAAGHVAYSGQLPPVPGLAYDAPSPPAFAKSQPNMYGLAAYTAPLSSCLPQQKRYAAPEFEPHPMASNGGGFASANLQGSPVYVGGNFVESMAPASGPVFNLGHLSHPSSASVDYSCAAQIPGNHHHGPCDPHPTYTDLSAHHSSQGRLPEAPKLTHL
B9: NKAP: human host interactor protein, Gene ID 79576, expressed from transfected ORF vector (protein)
chain: MAPVSGSRSPDREASGSGGRRRSSSKSPKPSKSARSPRGRRSRSHSCSRSGDRNGLTHQLGGLSQGSRNQSYRSRSRSRSRERPSAPRGIPFASASSSVYYGSYSRPYGSDKPWPSLLDKEREESLRQKRLSERERIGELGAPEVWGLSPKNPEPDSDEHTPVEDEEPKKSTTSASTSEEEKKKKSSRSKERSKKRRKKKSSKRKHKKYSEDSDSDSDSETDSSDEDNKRRAKKAKKKEKKKKHRSKKYKKKRSKKSRKESSDSSSKESQEEFLENPWKDRTKAEEPSDLIGPEAPKTLTSQDDKPLNYGHALLPGEGAAMAEYVKAGKRIPRRGEIGLTSEEIASFECSGYVMSGSRHRRMEAVRLRKENQIYSADEKRALASFNQEERRKRENKILASFREMVYRKTKGKDDK

Tested on: HIV-1 LTR promoter transactivation by HIV-1 Tat
Assay: Transactivation assay, HIV-1 LTR luciferase reporter with HIV-1 Tat
Format: cell-based
Conditions: HEK293 cells co-transfected with pHIV1LTR-Luc, HIV-1 Tat and the human ORF; relative luciferase activity 24 h post-transfection; positive if >=2 or <=0.5 and p<0.05
Source text: The plasmids pHIV1LTR-Luc or pHTLV1LTR-Luc containing a luciferase reporter gene under the control of the HIV-1 or HTLV-1 LTR promoters and plasmids expressing either HIV-1 Tat or HTLV-1 Tax and each human ORF found to interact with viral proteins were transfected into 10^4 HEK293 cells using the calcium phosphate method. Twenty-four hours post-transfection, cells were washed three times with PBS, lysed and luciferase activities determined from two independent transfection experiments in triplicate. We computed a paired t-test to assess the difference of the means between samples with and without the human interactor. For a trial to be considered positive, the relative luciferase activities has to be >=2 or <=0.5, and the p-value of the t-test<0.05.
Many HIV/HTLV-human interactions in our data set (130/212) involved the retroviral transactivator proteins HTLV-1 Tax (57/212), HTLV-2 Tax2 (49/212), HIV-1 Tat (10/212) and HIV-2 Tat (14/212). Human proteins interacting with viral transactivators likely influence Tat or Tax transactivation. Expression vectors encoding human ORFs and HIV-1 Tat or HTLV-1 Tax proteins were tested in a transactivation reporter assay against reporter plasmids harboring HIV-1 or HTLV-1 viral promoter sequences cloned upstream of the luciferase reporter gene. In the controls Tat or Tax respectively activated HIV or HTLV LTR-directed gene expression. Co-transfection of interacting human ORFs identified 71 proteins (54% of the 131 human targets in our data set) that regulated HIV (26.7% of targets), HTLV (37.4% of targets) or both (9.9% of targets) LTR promoter activation by Tat or Tax (see Tables 7 and 8; Table 13 below containing quantitative data on the regulation of transactivation). Wherever not expressly specified, constructs used herein were generally made by sub-cloning entry clones from the ORFeome V3.1 into suitable destination vectors.

Row | Molecule | HIV_LTR transactiv.
1 | B1 | 2.38 fold change
2 | B2 | 0.28 fold change
3 | B3 | 6.90 fold change
4 | B4 | 0.40 fold change
5 | B5 | 3.41 fold change
6 | B6 | 2.50 fold change
7 | B7 | 0.33 fold change
8 | B8 | 7.30 fold change
9 | B9 | 2.68 fold change
